Measured values from CN115558029A (LILING BIOLOGICAL PHARMACEUTICAL SUZHOU CO LTD, dated 2023).
Values belong to the binder of their own block, whether it stands above or below them.

What was measured:
[1] = target: PD-1 on Jurkat/PD-1细胞(Promega) (UniProt Q15116 25-288, limits assumed); assay: cell-based or functional assay
[2] = target: T1, 人PD-1蛋白(北京百普赛斯，货号PD1-H5221) (human, UniProt Q15116 25-167); assay: binding ELISA on coated PD-1 protein
T1 construct: Bought recombinant protein coated on the ELISA plate; also called PD-1抗原

EC50, PD-1报告基因法 [1]: 1.3 µg/mL
B1: 抗PD-1/IL-8-2 (bispecific antibody, human IgG4 S228P, kappa)
heavy: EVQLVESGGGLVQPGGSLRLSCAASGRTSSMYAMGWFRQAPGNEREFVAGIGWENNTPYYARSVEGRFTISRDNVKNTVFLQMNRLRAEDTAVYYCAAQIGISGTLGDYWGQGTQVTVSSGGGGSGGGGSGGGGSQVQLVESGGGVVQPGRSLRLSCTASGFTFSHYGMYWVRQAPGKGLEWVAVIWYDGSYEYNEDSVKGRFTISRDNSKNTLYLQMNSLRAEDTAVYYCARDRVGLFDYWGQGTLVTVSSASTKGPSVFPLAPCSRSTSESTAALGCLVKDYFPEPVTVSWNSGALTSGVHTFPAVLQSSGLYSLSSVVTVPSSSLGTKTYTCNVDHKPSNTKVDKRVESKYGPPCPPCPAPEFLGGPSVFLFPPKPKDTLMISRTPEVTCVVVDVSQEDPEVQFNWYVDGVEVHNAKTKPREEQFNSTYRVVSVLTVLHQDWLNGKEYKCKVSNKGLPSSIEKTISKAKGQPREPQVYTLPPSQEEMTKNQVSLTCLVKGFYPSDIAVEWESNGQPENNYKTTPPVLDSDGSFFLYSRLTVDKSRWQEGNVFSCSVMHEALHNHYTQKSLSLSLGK
light: EIVLTQSPGTLSLSPGERATLSCRASQSISSSYLAWYQQKPGQAPRLLIYGPSSRATGIPDRFSGSGSGTDFTLTISRLEPEDFAVYYCQQYAGSLTFGPGTKVDIKRTVAAPSVFIFPPSDEQLKSGTASVVCLLNNFYPREAKVQWKVDNALQSGNSQESVTEQDSKDSTYSLSSTLTLSKADYEKHKVYACEVTHQGLSSPVTKSFNRGEC

binding result [2]: binds
B2: 抗PD-1/IL-8-1 (bispecific antibody, human IgG4 S228P, kappa)
heavy: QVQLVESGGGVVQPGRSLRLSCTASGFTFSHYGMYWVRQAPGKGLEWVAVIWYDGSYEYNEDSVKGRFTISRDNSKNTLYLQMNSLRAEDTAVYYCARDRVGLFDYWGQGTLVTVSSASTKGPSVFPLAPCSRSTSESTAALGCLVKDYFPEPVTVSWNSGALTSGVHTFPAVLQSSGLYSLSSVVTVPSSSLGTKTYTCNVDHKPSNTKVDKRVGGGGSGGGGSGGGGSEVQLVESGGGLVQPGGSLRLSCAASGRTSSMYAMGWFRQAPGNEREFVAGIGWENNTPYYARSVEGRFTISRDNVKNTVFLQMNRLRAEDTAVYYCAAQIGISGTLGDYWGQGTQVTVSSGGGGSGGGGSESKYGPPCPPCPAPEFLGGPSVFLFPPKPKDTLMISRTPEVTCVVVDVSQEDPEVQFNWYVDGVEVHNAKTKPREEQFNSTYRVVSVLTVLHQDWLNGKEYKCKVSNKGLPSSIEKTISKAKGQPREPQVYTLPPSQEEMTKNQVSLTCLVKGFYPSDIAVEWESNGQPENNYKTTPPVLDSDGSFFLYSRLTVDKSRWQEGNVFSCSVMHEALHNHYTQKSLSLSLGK
light: B1 light
notes: also called antiPD-1/IL-8-1

EC50, PD-1报告基因法 [1]: 4 µg/mL
EC50 [2]: 0.0641 µg/mL
B3: 抗PD-1/PSCK9-2 (bispecific antibody, human IgG4 S228P, kappa)
heavy: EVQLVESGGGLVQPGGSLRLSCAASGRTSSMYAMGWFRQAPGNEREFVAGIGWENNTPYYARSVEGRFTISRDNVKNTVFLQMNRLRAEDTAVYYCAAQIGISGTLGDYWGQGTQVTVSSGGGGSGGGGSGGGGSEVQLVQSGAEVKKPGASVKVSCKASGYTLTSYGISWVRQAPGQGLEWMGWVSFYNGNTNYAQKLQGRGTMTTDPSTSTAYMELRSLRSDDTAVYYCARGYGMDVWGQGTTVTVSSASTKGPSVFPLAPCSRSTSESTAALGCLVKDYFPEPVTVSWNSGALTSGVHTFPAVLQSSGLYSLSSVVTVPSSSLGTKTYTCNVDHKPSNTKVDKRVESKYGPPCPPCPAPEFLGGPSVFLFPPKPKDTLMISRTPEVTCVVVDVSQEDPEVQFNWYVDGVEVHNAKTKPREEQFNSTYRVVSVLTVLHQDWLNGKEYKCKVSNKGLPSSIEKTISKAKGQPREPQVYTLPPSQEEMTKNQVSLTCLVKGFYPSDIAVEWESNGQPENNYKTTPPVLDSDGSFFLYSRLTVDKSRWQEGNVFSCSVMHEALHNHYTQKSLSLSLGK
light: ESALTQPASVSGSPGQSITISCTGTSSDVGGYNSVSWYQQHPGKAPKLMIYEVSNRPSGVSNRFSGSKSGNTASLTISGLQAEDEADYYCNSYTSTSMVFGGGTKLTVLRTVAAPSVFIFPPSDEQLKSGTASVVCLLNNFYPREAKVQWKVDNALQSGNSQESVTEQDSKDSTYSLSSTLTLSKADYEKHKVYACEVTHQGLSSPVTKSFNRGEC
notes: also called antiPD-1/PSCK9-2; 抗PD-1/PCSK9-2

EC50, PD-1报告基因法 [1]: 1.7 µg/mL
EC50 [2]: 0.17 µg/mL
B4: 抗PD-1/TGF-β-1 (bispecific antibody, human IgG4 S228P, kappa)
heavy: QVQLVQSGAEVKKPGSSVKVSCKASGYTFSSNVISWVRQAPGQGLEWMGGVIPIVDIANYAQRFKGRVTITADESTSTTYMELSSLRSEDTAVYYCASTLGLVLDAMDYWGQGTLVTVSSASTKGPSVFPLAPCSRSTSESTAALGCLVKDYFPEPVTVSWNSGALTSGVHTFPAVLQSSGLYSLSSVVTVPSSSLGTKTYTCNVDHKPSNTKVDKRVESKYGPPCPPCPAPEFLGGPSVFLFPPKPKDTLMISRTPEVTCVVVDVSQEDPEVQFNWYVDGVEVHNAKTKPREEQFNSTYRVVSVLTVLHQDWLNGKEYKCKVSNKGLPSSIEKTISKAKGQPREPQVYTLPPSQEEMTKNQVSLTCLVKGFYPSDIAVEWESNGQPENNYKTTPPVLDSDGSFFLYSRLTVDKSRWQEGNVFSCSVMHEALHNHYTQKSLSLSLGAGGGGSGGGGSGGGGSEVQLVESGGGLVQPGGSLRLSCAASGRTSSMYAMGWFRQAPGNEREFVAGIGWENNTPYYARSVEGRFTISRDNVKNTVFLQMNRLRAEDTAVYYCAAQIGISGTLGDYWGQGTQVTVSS
light: ETVLTQSPGTLSLSPGERATLSCRASQSLGSSYLAWYQQKPGQAPRLLIYGASSRAPGIPDRFSGSGSGTDFTLTISRLEPEDFAVYYCQQYADSPITFGQGTRLEIKRTVAAPSVFIFPPSDEQLKSGTASVVCLLNNFYPREAKVQWKVDNALQSGNSQESVTEQDSKDSTYSLSSTLTLSKADYEKHKVYACEVTHQGLSSPVTKSFNRGEC
notes: also called antiPD-1/TGF-β-1

binding result [2]: binds
B5: 抗PD-1/TGF-β-3 (bispecific antibody, human IgG4 S228P, kappa)
heavy: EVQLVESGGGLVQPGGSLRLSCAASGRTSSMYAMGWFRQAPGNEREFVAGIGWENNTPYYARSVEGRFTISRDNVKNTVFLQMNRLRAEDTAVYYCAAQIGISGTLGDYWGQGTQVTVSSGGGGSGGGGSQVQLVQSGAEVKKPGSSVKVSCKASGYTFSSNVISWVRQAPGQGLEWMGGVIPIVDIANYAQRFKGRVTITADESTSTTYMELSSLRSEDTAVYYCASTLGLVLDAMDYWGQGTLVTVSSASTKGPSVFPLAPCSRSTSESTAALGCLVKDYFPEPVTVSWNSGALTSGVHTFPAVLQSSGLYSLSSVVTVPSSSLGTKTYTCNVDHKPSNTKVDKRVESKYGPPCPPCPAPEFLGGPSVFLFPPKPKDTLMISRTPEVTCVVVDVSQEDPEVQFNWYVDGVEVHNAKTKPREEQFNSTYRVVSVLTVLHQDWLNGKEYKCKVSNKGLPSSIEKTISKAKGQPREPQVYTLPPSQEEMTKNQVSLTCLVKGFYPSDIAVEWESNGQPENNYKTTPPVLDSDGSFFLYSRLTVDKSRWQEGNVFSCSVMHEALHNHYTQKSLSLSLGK
light: B4 light
notes: also called antiPD-1/TGF-β-3

binding result [2]: binds
B6: 抗PD-1/TGF-β-2 (bispecific antibody, human IgG4 S228P, kappa)
heavy: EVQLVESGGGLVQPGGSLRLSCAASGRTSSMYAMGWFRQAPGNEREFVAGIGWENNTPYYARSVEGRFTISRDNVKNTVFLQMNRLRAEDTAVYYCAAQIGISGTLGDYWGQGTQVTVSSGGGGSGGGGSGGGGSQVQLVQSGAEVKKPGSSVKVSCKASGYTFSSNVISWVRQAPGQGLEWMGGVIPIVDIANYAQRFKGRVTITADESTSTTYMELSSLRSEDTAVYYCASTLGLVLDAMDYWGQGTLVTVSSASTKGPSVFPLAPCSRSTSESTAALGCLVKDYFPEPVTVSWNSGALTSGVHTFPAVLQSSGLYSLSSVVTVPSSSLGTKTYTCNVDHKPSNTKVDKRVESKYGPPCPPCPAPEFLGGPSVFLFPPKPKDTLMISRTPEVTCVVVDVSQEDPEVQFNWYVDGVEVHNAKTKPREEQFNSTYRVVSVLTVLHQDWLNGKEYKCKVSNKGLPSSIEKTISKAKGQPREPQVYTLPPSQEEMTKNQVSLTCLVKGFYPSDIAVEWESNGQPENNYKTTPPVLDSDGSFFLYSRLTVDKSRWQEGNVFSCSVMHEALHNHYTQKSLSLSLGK
light: B4 light
notes: also called antiPD-1/TGF-β-2
